# Reference: the supplement of paper PMC10567573
# ± gives the standard deviation.
# Assay: protein stability index of a GFP-peptide fusion (GPS, HEK-293T) (PSI 1-6); higher = more stable
# [1] = treatment: DMSO, c terminus: a fixed tail appended
# [2] = treatment: MLN4924 1 uM, 8 h, c terminus: a fixed tail appended
# [3] = treatment: DMSO, c terminus: native
# [4] = treatment: MLN4924 1 uM, 8 h, c terminus: native
# 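Further: 24-mer peptide tiles fused after GFP, lentivirally expressed, FACS-sorted into six equal bins by GFP/DsRed ratio, decoded by Illumina sequencing, PSI is the read-weighted mean bin number.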
Sequence,protein stability index [1],protein stability index [2],protein stability index [3],protein stability index [4]
LHKFPYRMVPALPPKRMLGADREF [SNX8],2.55 ± 0.15,2.67 ± 0.32,,
FLSLDIPIGELYGLSESSGPHTIS [ACSBG2],2.39 ± 0.4,2.47 ± 0.36,,
NPPAQPAPNAWQVIKGVLFRIFII [CLPTM1],1.9 ± 0.18,2.09 ± 0.15,,
PRLSQLSVTDVTTSSLRLNWEAPP [TNXB],3.5 ± 0.4,,,
DFSSGGAAAAAAPAPPPPAGGATA [SNAP91],5.39 ± 0.3,5.37 ± 0.15,,
LNDRLASYLDKVRALEEANTELEV [KRT17],4.03 ± 0.11,4.17 ± 0.17,,
AGDRFLEALGFSWHDTCFVCAICQ [PDLIM7],2.32 ± 0.4,2.52 ± 0.28,,
TALPPMNEARHNFGIVEIDGMLYI [GAN],2.24 ± 0.31,2.08 ± 0.26,,
MDEESELIQPQDQSCWAFLPDLCL [FBXO39],3.45 ± 0.17,3.34 ± 0.33,,
SGGYWVGMSTIRPNPGFSMLDFLS [APMAP],2.1 ± 0.14,2.32 ± 0.97,,
LCPCLRSGIGSSQALGPSPPLFG [MYCL],,,2.54 ± 0.84,2.11 ± 0.26
VRKKERGREEKCVWKHGITPPLKN [TAF7L],3.85 ± 0.41,3.83 ± 0.3,,
NQQIHEQEKKILELEKLAEKNIIL [MTUS2],4.13 ± 0.18,4.25 ± 0.17,,
EEPNGQIQGYRVYYTMDPTQHVNN [PTPRD],3.18 ± 0.19,3.17 ± 0.34,,
VTLKTAVDGPDLEMLTGQERVALA [FKBP8],3.7 ± 0.23,3.81 ± 0.24,,
EKPYKCPECGEIFAHSSNLLRHQR [ZNF263],3.07 ± 0.86,3.76 ± 0.93,,
WHDTCFVCAICQINLEGKTFYSKK [PDLIM7],2.24 ± 0.29,2.21 ± 0.15,,
EVSQQDPSHGEVGEHKDRIERQWG [ZSCAN9],4.69 ± 0.18,4.95 ± 0.15,,
GDPEEIRMLIHKTEDVNTLDSEKR [ANKRD44],5.51 ± 0.16,5.33 ± 0.33,,
FSSERGPRMCRYVRERDRLGNEYP [CDC25A],2.93 ± 0.29,2.61 ± 0.58,,
IEVKTKGGSKYLIYRRYRQFHALQ [NCF4],2.22 ± 0.35,2.2 ± 0.33,,
FLSLEASTETLVHVSDEDNNADLC [DLC1],5.11 ± 0.27,5.2 ± 0.12,,
NGGMATTSAEIELPDVEPAAFLAL [BTBD1],3.86 ± 0.25,4.02 ± 0.22,,

Sequence,protein stability index [1],protein stability index [2],protein stability index [3],protein stability index [4]
KQQENATSCSLELIGDLIGHSSSV [WDR41],3.02 ± 0.37,3.17 ± 0.11,,
YLFWEFATDNYDIGFGVYFEWTDS [ACBD3],3.14 ± 0.85,1.93 ± 0.72,,
HTFNAHAATDITGFGILGHSQNLA [SEPHS2],3 ± 0.35,3.04 ± 0.24,,
ILKIRHGWEDVTKINKTEICSQL [STEAP1],,,2.42 ± 0.57,2.2 ± 0.21
IIEYRGKFMLREQFEANGYFFKRP [KMT2E],2.31 ± 0.63,2.37 ± 0.36,,
KLTREQEELEEALEVERQENEQRR [MNAT1],5.59 ± 0.18,5.45 ± 0.27,,
SCCFDPDSQRVASVSLDRCIKIWD [WDR88],2.44 ± 0.14,2.57 ± 0.36,,
GPALWLRSTCVYVCALSALPAGPL [PLEKHN1],2.98 ± 0.63,3.27 ± 0.74,,
ETTRNTTGIEESTDGMILGPEDLS [LARP4],5.47 ± 0.4,5.43 ± 0.28,,
GVRDSGSPPLHANTSLHVFVLDEN [PCDHGC5],3.51 ± 0.21,3.51 ± 0.24,,
QPHHQPPNRAGAPGESLECPAELR [TRAF3IP2],5.42 ± 0.23,5.21 ± 0.23,,
VCYTACATLKGPDSHYGTKGLKKV [BTBD1],3.06 ± 0.42,3.21 ± 0.23,,
EASAEGPRAVFVLLEERRPADSAQ [TFE3],3.93 ± 0.28,3.95 ± 0.44,,
SPEPGTPAAPTPESFTVHFLPLNS [DNAAF3],3.55 ± 0.35,3.5 ± 0.22,,
CDWLRATGFPQYAQLYEDFLFPID [DLC1],2.31 ± 0.45,2.26 ± 0.24,,
AWLNYPCFKNWDGSPVSSWILLAE [OAS1],2.58 ± 0.34,2.3 ± 0.23,,
KHAGKDPVRDECEERNRFTETREE [FAM9B],5.54 ± 0.2,5.49 ± 0.2,,
DDISVDSLDFTKKILHTAWHPAEN [PPP2R2C],3.12 ± 0.36,3.12 ± 0.49,,
SASEPQPASQAASSSSASADLLAG [SNAP91],5.51 ± 0.17,5.41 ± 0.19,,
DPKKLLTQHFVQENYLEYRQVPGS [MAGEA3],3.62 ± 0.22,3.76 ± 0.13,,
TFWASWRAFAQIGPARSGFRLETL [MIR22HG],2.73 ± 0.42,2.47 ± 0.41,,
VFPAPVVGSGGATSGKLLLEADEL [ZBTB22],4.93 ± 0.25,4.73 ± 0.22,,
AIVSCTPVHLIDKLPLPVTIKSHL [RAB40C],2.18 ± 0.24,2.08 ± 0.19,,

Sequence,protein stability index [1],protein stability index [2],protein stability index [3],protein stability index [4]
IRRAYPDANLLNDRVLRAMLKAEE [CCND1],2.96 ± 0.24,3.52 ± 0.47,,
DLTVGRAPTADDDDDDHDDHEDND [NOL4L],5.56 ± 0.18,5.5 ± 0.15,,
SLSYTVLIVGRIAIGVSISLSSIA [SLC2A12],3.02 ± 0.43,3.37 ± 0.23,,
LDKSTTGVSEILLKTQMKMSLKCL [FEM1B],2.6 ± 0.31,2.17 ± 0.26,,
HRAVASRSEEAVQVLIKHSADVNA [ANKRD44],4.5 ± 0.28,4.47 ± 0.31,,
LAHLGRHMEALEIAANLENKATNT [C8orf76],4.22 ± 0.17,4.29 ± 0.37,,
IELAPLSMPRINHGVLSAEGFLFV [GAN],3.34 ± 1.1,2.81 ± 0.61,,
WTAPLVMRTTNLDNRCKLFDSPSL [CDC25A],2.4 ± 0.17,2.52 ± 0.28,,
TFVSGGCDKKAMVWDMRSGQCVQA [GNB5],2.68 ± 0.2,2.89 ± 0.46,,
ASSSRSVRTTRGKRKRVDVEESEA [LMNB1],5.22 ± 0.39,5.49 ± 0.29,,
PSLEAGNPAPAAPCPLGEPKTQAC [MYCL],5.26 ± 0.14,5.32 ± 0.11,,
CEVPTCSLCKVFGAHKDCQVAPLT [TRIM55],3.58 ± 0.2,3.7 ± 0.25,,
DSSHERTESQLTPCIRNVTSPTRQ [BTBD10],5.06 ± 0.15,5.1 ± 0.12,,
KRKLGLTALVGLRQNLSKSWLDVQ [TPD52L3],2.17 ± 0.71,2.16 ± 0.42,,
PQLKKESELPFVPNYLANPAFPFI [ANKRD40],2.82 ± 0.34,2.87 ± 0.085,,
ETRVWHRRDGKWQIVHFHRSGAPS [CAMK2A],2.95 ± 0.07,3.1 ± 0.25,,
AAEMYQRGRAVLREAGFHQYEVSN [RSAD1],3.32 ± 0.3,3.29 ± 0.24,,
ATIHGAIRLVCSRGNRLKTTSWGL [SCNN1D],2.46 ± 0.7,2.18 ± 0.24,,
CDELELHQRFLREGRFWKSKNEDR [ZMYND11],4.29 ± 0.17,4.31 ± 0.36,,
RKRTAHERAKELYSSGEFSSGRKW [INTS4],4.06 ± 0.32,4.08 ± 0.31,,
MQVLVTAISPGRFPEALDELPLPP [ANKRD9],2.17 ± 0.48,2.23 ± 0.19,,
AAEERALFTDRMATRSTTQSNRTS [WEE1],5.1 ± 0.2,5.17 ± 0.21,,
VIQAVQKSEEGHPFKAYLDVDITL [RTN3],2.23 ± 0.59,2.18 ± 0.39,,

Sequence,protein stability index [1],protein stability index [2],protein stability index [3],protein stability index [4]
LLKITIPNAFIGSDVVDWLYHNVE [DVL3],2.31 ± 0.63,2.26 ± 0.28,,
ETAPLTLESLPTDPLLLILSFLDY [FBXO3],2.36 ± 0.19,2.28 ± 0.19,,
SWTGDGWEFKLSDPDEVARRWGKR [ETS1],3.73 ± 0.062,3.88 ± 0.25,,
RRATSGGKWPQVLFFPEGTCSNKK [LPCAT4],3.72 ± 0.31,3.78 ± 0.13,,
SSPAGLSREYKLVMLGAGGVGKSA [RIT1],3.17 ± 0.62,2.96 ± 0.22,,
MGGSGSRLSKELLAEYQDLTFLTK [CIB1],3.175 ± 0.031,3.27 ± 0.28,,
FPAKYIYDPWNAPEGIQKVAKCLI [CRY1],2.85 ± 0.39,2.43 ± 0.32,,
LLKTLYNSIKNEKLEWAIDEDELR [PSD2],2.61 ± 0.43,2.07 ± 0.32,,
RRLYHLEGFQRCDVARQLGKNNEF [PSD2],2.61 ± 0.43,2.8 ± 0.16,,
FALASLLQSAPDVKGRVRCLTAGP [ZSWIM9],2.02 ± 0.29,2.42 ± 0.24,,
NKKYYKKFSIPDLDRHQLPLDDAL [DPCD],3.46 ± 0.13,3.55 ± 0.26,,
YSEEECKQYKAVVYSNTIQSIIAI [GNAI1],2.35 ± 0.63,2.06 ± 0.33,,
KKIFAQLDSIIDDRVILSSSTSCL [CRYL1],2.35 ± 0.15,2.58 ± 0.3,,
KSCYNGRFQLLYVACGMVHLLIPE [DNAAF3],3.37 ± 0.63,2.77 ± 0.36,,
AQNDLDISRIKRGNTTLESTDTL [P2RY14],,,5.26 ± 0.17,5.25 ± 0.22
SNEWKTVVGGAMFFIGFTALVIMW [COX4I1],3.09 ± 0.14,3.06 ± 0.27,,
LTVRKSQSEPSEQDGVLDLSTKKS [LCOR],5.15 ± 0.25,5.22 ± 0.24,,
LLDIKTRLEQEIATYRSLLEGQDA [KRT13],3.45 ± 0.19,3.51 ± 0.26,,
TGTALRFRVLCTAPAKYTVFDAEG [MOSPD3],2.49 ± 0.95,2.54 ± 0.41,,
CLKVGMRREAVQRGRMPPTQPTHG [NR2F2],3.59 ± 0.27,3.71 ± 0.32,,
